A short description of the data set: amyloid nucleation score (Sup35N fusion, yeast selection) (log enrichment); library NNK2; higher = more nucleation; inactive = no reads after selection. Put shortly: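 Psi-negative yeast expressed Sup35N fused to peptides of 20 random codons. They were induced 24 hours with 100 μM copper sulfate, grown 7 days at 30°C without adenine and uracil, and their plasmid inserts from input and output were Illumina-sequenced. The nucleation score is the DiMSum log enrichment of output over input reads, centred on the mode score of non-aggregating sequences. Sequences with under 100 input reads were excluded.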

± gives the uncertainty stated by the source.

Substance VMAILCTNARQLEDSLRQVE had an amyloid nucleation score of 0.452 ± 0.43.
NSLVLPDLAYLGCKMNLNFS displayed an amyloid nucleation score of 3.94 ± 0.074.
On to VVDGLRATAH, for which the amyloid nucleation score is 0.366 ± 0.38.
Then EELAPSCAEDEILILSMLIN, with -0.592 ± 0.76; and NPINRYCVAHEKLFRNVRSV, with 1.87 ± 0.29.
For YYFMVL the value was 0.656 ± 0.35; for CVMFTLSCVNFDCDCSCRWK, 6.31 ± 0.084; for RDKPPVSKYTSRTREFMLVR, 0.987 ± 0.39.
Then WFFRVLCLCRTLWNHYSFF, with 0.054 ± 0.79; and MDSILVNVYVVNW, with 9.259 ± 0.042.
On to GEQVWCVGCPYVRWNSLHAG, for which the amyloid nucleation score came out at 8.756 ± 0.037.
For EGRVFTGEGRYECCSCFGLL the value was -0.752 ± 0.64.
For LVGMSATYPTHNWFKVRTYF the value was -0.104 ± 0.76; for EFLLYRTSVP, -0.205 ± 0.76; for VNLTSFYLITDCTLNGQQWR, 8.654 ± 0.052.
Then FNGCFSCTMG, with 8.109 ± 0.055.
In the case of AMYLPWARCSISPTNLIFNL, the amyloid nucleation score is -1.1 ± 0.42.
Substance NCDRPTLEMSVNRRLFSCPE yielded an amyloid nucleation score of 0.54 ± 0.27.
Then ITPFHT, with -0.448 ± 0.3; and KAKYTTILCCIDRCGCIGQY, with 8.613 ± 0.046; and FFTSSHNFCYLMGYNMIWFK, with “inactive”.
Then CRNCLLGHLRLVTHHVRILY, with “inactive”; and IVPSQH, with 0.271 ± 0.44; and TFRPFQVTSHVSLRDMMGIS, with 0.132 ± 0.3.
For IRESGVYTNLYSVVRVEEKT the value was 0.012 ± 0.38; for TAHHITSVWYVVLVRLRFRQ, 1.76 ± 0.35.
Substance CLNTLFVEFRCLSMGACCGI came in with an amyloid nucleation score of 1.1 ± 0.31.
In the case of MSTGRCILRPFLGSPRSSVV, the amyloid nucleation score result was “inactive”.
For MLSFHLSVVAETMTWWSTRY the value was 0.857 ± 0.19; for IIYYWAPLVITMEFQERRVR, 6.395 ± 0.038.
For RFYTVSRSRLSGMSMYLCRV the value was -0.294 ± 0.26; for PTGGRLYSV, 0.012 ± 1.
Then VLRKEFVYSGCWAKRRLG, with 0.165 ± 0.17; and GLSQILDDVGWICRVFELQR, with 0.299 ± 0.37; and IYWLKTPMLLYWGSPCPRNA, with 0.058 ± 1.
In turn, LAMLRS registered an amyloid nucleation score of 1.17 ± 0.34.
For RAPFLKMCL the value was -1.22 ± 0.75.
For CVYEIPKM the value was 3.09 ± 0.048; for LRGYCLRWRHWTVSILEFGV, -1.02 ± 0.76; for YRLMLMS, 0.43 ± 0.42.
DCSDPCGSAPKDLSTKTVRC displayed an amyloid nucleation score of 1.61 ± 0.26.
For LWVGQLTTY the value was 0.199 ± 0.45.
For CFSRIFICN the value was -0.075 ± 0.49; for TGCLLWCLLSMEGRESFQDD, -0.504 ± 0.78.
In turn, NITKTRHFLSLNYYNVYAFS displayed an amyloid nucleation score of 5.05 ± 0.056.
For VEHARGDRCCRQDYGVQQYK the value was 2.68 ± 0.23; for NWLLRG, 1.26 ± 0.37; for KLKSVRDLSCLSYHSDIKVK, 3.58 ± 0.055.
As for ASSTRRSRSFNIGILCMFRM, the amyloid nucleation score amounted to 5.66 ± 0.06.
Then FEQRGVTSRLCSPLSYEERM, with -0.82 ± 0.3; and TLNRTW, with 0.166 ± 0.16; and MDVGYCRNAVHRMLGMNCMM, with 4.95 ± 0.062.
Regarding WTHVHTRKDSLLSTGNCVPI, the amyloid nucleation score entry is “inactive”.
On to TAVERVSTR, for which the amyloid nucleation score worked out at 4.94 ± 0.08.
Then RLHPMRSNI, with -0.43 ± 0.3; and YVYSVYNFLRVLICAGTG, with 6.185 ± 0.037; and LKPSSFVYIITDQFSNHIVM, with 5.84 ± 0.065.
Then CPMCTFLCCLAFY, with 8.626 ± 0.04.
For TGLYFLNSWIIMLRL the value was 4.434 ± 0.033; for STFLCVLTGMCCMARMS, 0.54 ± 0.64.
Consider SIGPLLHMCSFVFLEVRIIF, for which the amyloid nucleation score amounted to 1.83 ± 0.15.
Then CNCQMGDVLEGLGDVGLNNF, with -1.65 ± 0.62; and IVCLAVSLSSDRTE, with 6.599 ± 0.04.
As to YVYMSYPYIILLFHYMSSDW, the amyloid nucleation score entry is “inactive”.
Turning to FALNLFCEDKCLYCSLVSS, the amyloid nucleation score came to 2.92 ± 0.066.
In the case of FNWDNFSKLVAKNNLVISKL, the amyloid nucleation score result is “inactive”.
For SVFVYYGFQENSAFSIWLAP the value was -0.96 ± 0.54.
For CVMIESLKVFISPWLASRIR the value was -0.291 ± 0.65; for AKLPKPSRLHQRLTKQTV, 1.19 ± 0.38.
As for YRDECWLSYS, the amyloid nucleation score was -0.347 ± 0.56.
Then AWYKFIITMPFIFKSDITST, with -0.454 ± 0.54.
On to PRRECVVRSAVPWYRRSRE, for which the amyloid nucleation score came to 1.71 ± 0.35.
For QYVDWLLYGLRDCYWYRRVY the value was 0.192 ± 0.3; for NFCFVWLSREYHRLALCSGV, “inactive”.
For the substance NILVTRNNKHTSFCYTSLLL, the amyloid nucleation score was found to be 2.22 ± 0.084.
In the case of LRGMTLFTPVTLTNSNCMVT, the amyloid nucleation score was found to be 0.437 ± 0.18.
RFDINHCIKRCRFGRLVAEI returned an amyloid nucleation score of 3.12 ± 0.1.
KDCLTVVMLSLVHLRPCY: the amyloid nucleation score entry is “inactive”.
As for VCYGVSFPIGWGYQYHNRNV, the amyloid nucleation score result was “inactive”.
YGVGMVWMVIECEEVGYVRR registered an amyloid nucleation score of 0.683 ± 0.16.
As for DSGFGSW, the amyloid nucleation score was -0.807 ± 0.74.
For RLGIVSSVLVYWLYNYYSVL the value was “inactive”; for GAWFQTYWLWCEYMAFIQKL, 1.86 ± 0.17.
With SSTEMSFYMIHKIFAVY, the amyloid nucleation score entry was “inactive”.
Then SRFRIMSNLGVKWGPCRVYL, with 0.164 ± 0.8; and VNMIRRTINSGVYRWSFQLQ, with 1.14 ± 0.54; and AGILLYHPQNMHDSPLQMTR, with 3.71 ± 0.099.
Then LIMLASSLWTRKGGDTST, with 6.292 ± 0.053; and EWRGMLLVSTRLVKDIVR, with -0.553 ± 0.35; and SILNDESFILLDILMVHFEY, with -0.547 ± 0.35.
Then WCCMGDMISVKSLVWEPCVT, with 3.17 ± 0.098.
Take SIRRTLVGQRAHEGKFWYGV: the amyloid nucleation score is -0.504 ± 0.63.
HRTVRFP: the amyloid nucleation score result is “inactive”.
For IYVGIHNLILMTSTLGVNKR the value was 6.06 ± 0.041; for HYCVIEKRSHIG, -0.739 ± 0.64.
YDAMFS gave an amyloid nucleation score of 1.09 ± 0.45.
Regarding SIVMFVCDLRNQPTAIFRDR, the amyloid nucleation score stood at 8.256 ± 0.074.
Consider KQVNPPIA, for which the amyloid nucleation score is -0.541 ± 1.1.
With LYPSFEDTLRWPSPRGMKMC, the amyloid nucleation score is 0.182 ± 1.1.
As to SVWPGRSAEASRFGFGAGAD, the amyloid nucleation score was 0.528 ± 0.49.
Then LLSKGLA, with -0.682 ± 0.32; and FWSVEMMRHTSSFIFAEWNK, with -0.033 ± 0.2.

(Values after the supplement of paper PMC12042874.)
